The test system of assay [1] is antioxidant response element (ARE). In words: Transcriptional reporter, reverse transfection, ARE in HEK293 cells. The assay is classed as cell-based, human. To be noted: 100 ng DNA, 24 h. As to the method: HEK293 cells were trypsinized (T75 flask, 3 mL trypsin) and resuspended in […] (approximately 8.9×10^6 total cells) in medium containing DMEM+10% FBS+1×NEAA. Each transcriptional reporter was prepared for transfection by mixing 1.2 mL OPTI-MEM®, 12 μL transcription reporter DNA (100 ng) and 36 μL FUGENE® HD transfection reagent together and incubated at room temperature for 35 min. Following incubation, 624 μL of the transfection/reporter DNA mixture was added to 12 mL of cell suspension and mixed by inversion. After mixing, 100 μL of the cell/DNA mixture was added to wells of a 96-well plate (2 constructs/plate). The cells were incubated at 37° C. for 22 hrs. Tert-butylhydroquinone (a Nrf2 stabilizer; tBHQ; 1 μM (“baseline”) or 20 μM) or sulphoraphane, (an organosulfer antioxidant known to activate Nrf2; 1 μM (“baseline”) or 20 μM) in OPTI-MEM® was added to each well and incubated at 37° C. for 24 hrs. Cells were lysed with 100 μL lytic reagent as described above for the forward transfection. Luminescence was measured on a GLOMAX® Luminometer.

Assay [2] is described as follows: Brightness of purified OgLuc variant compared to firefly luciferase. Type of assay: biochemical. As to the method:
The 9B8 OgLuc variant was overexpressed and purified as described in Example 33. Reactions between diluted enzyme and substrate were performed using the following 2× buffer/assay reagent: 100 mM MES pH 6.0, 1 mM CDTA, 150 mM KCl, 35 mM thiourea, 2 mM DTT, 0.25% TERGITOL® NP-9 (v/v), 0.025% MAZU® DF 204, 10 mg/mL 2-hydroxy-β-cyclodextrin, and 20 μM PBI-3939. The final assay concentrations of purified enzyme and substrate were 0.5 pM and 10 μM, respectively. In parallel, reactions between diluted purified firefly luciferase (i.e., QUANTILUM® Recombinant Luciferase (Promega Corp.)) and luciferin were analyzed. The assay buffer/reagent for the firefly luciferase reaction was BRIGHT-GLO™, and the final assay concentrations were 0.5 pM enzyme and 500 μM luciferin. As the buffers/reagents for each reaction were known to provide “glow” kinetics, a 15 min time point was used to collect luminescence data.

The test system of assay [3] is cAMP response element (CRE). The assay can be described thus: Transcriptional reporter, forward transfection, CRE in HEK293 cells. The assay is classed as cell-based, human. The settings on record: 3 h; for baseline: 10 nM FSK. As to the method: HEK293 cells were plated at 15,000 cells/well in six 96-well tissue culture plates. Cells were grown in 100 μL of DMEM+10% FBS+1× non-essential amino acids (NEAA) and incubated overnight at 37° C. The cells were transiently transfected with either 10 ng or 100 ng plasmid DNA/well of pGL4.29 9B8 opt, pGL4.29 9B8 opt-P, or pGL4.29. Plasmid DNA was mixed with 850 μL of OPTI-MEMO (Invitrogen) and 32.4 μL of FUGENE® HD transfection reagent (Promega Corp.) and incubated at room temperature for 10 min. Eight μL of the transfection/reporter DNA mixture was added to the appropriate wells (2 constructs/plate). Cells were incubated for 4 hrs at 37° C. The medium was replaced with OPTI-MEM®+0.5% dialyzed FBS+1×NEAA+1× sodium pyruvate+1× Penn-Strep and incubated overnight at 37° C.
A lytic reagent containing 100 mM MES pH 6.1, 1 mM CDTA, 150 mM KCl, 35 mM thiourea, 2 mM DTT, 0.25% TERGITOLO NP-9 (v/v), 0.025% MAZUO DF 204, and 20 μM PBI-3939 was added to the cells containing pGL4.29 9B8 opt or pGL4.29 9B8 opt-P and allowed to incubated for 10 min at room temperature (100 μL lytic reagent added to 100 μL cells). ONE-GLO™ assay reagent (Promega Corp.) was added to cells containing pGL4.29 and used according to the manufacturer's protocol (100 μL reagent added to 100 μL cells). Luminescence was measured on a GLOMAX® Luminometer.

For assay [4], the system named is CRE. The assay can be described thus: Transcriptional reporter, bulk transfection, CRE in NIH3T3 cells. The assay is classed as cell-based. The settings on record: NIH3T3, 10 nM FSK, 4 h. How it is done:
(§1) The transcriptional reporter containing HRE and 9B8 opt-P was used in the bulk transfection of HeLa cells
(§2) HEK293, NIH3T3, or HeLa cells were plated to a single well of a 6-well tissue culture plate the day before transfection at a density of 4.5×10^5 cells/well in 3 mL complete medium (DMEM+10% FBS+1×NEAA+1× sodium pyruvate) for HEK293 cells, 3×10^5 cells/well in 3 mL complete medium (DMEM+10% fetal calf serum (FCS)+1×NEAA+1× sodium pyruvate) for NIH3T3 cells, or 9.9×10^5 cells/well in 3 mL complete medium (DMEM+10% FBS+1×NEAA) for HeLa cells. Cells were grown overnight at 37° C.
(§3) 3,300 ng of reporter plasmid DNA in 155 μL OPTI-MEM® was mixed with 9.9 μL FUGENE® HD transfection reagent, vortexed briefly, and incubated at room temperature for 10 min. The CRE transcriptional reporters were used to transfect HEK293 and NIH3T3 cells. The HRE transcriptional reporters were used to transfect HeLa cells. The reporter mixture was added to cells and mixed by gentle rocking followed by incubation at 37° C. for 6 hrs (HEK293 and NIH3T3) or 3 hrs (HeLa). […]
(§4) FSK (CRE stimulator) or 17-AAG (HRE stimulator; 17-Allylamino-demethoxy geldanamycin) in OPTI-MEM® was added to the cells (10 nM or 10 μM final concentration for FSK; 1 nM or 1 μM final concentration for 17-AAG) and incubated at 37° C. for 4 hrs (FSK) or 6 hrs (17-AAG). […] Luminescence was measured on a GLOMAX® Luminometer.

Assay [5] relates to CRE. The assay can be described thus: Transcriptional reporter, bulk transfection, CRE in HEK293 cells. To be noted: HEK293, 10 nM FSK, 4 h. The assay is classed as cell-based, human. As to the method: as §1, §2, §3, §4
Assay [6] relates to cAMP-response element (CRE). In words: cAMP transcriptional reporter in HEK293 cells. The settings on record: for fold-induction: FSK 5 hrs.
The nature of assay [7]: Thermal stability of OgLuc variants at 60° C. The assay is classed as physicochemical. The settings on record: luminescence at start of incubation (t=0), PBI-3939. How it is done: Aliquots were removed at different time-points and placed on dry ice to freeze the samples. […] Luminescence was measured on a GLOMAX® luminometer (Promega Corp.).
The thermal stability of the variants at 60° C. was examined as described above, except the assay buffer contained 100 mM MES pH 6.0 instead of HEPES.

The next assay concerns HEK293 cells. In words: Luminescence of luciferases in lysed HEK293 cells (codon optimization). To be noted: normalized. The assay is classed as cell-based, human. How it is done: Codon optimized versions of IV (“IV opt” (SEQ ID NO: 22) and “IV optB” (SEQ ID NO: 23)) and 9B8 (“9B8 opt” (SEQ ID NO: 24) and “9B8 optB” (SEQ ID NO: 25)) were generated and cloned into pF4Ag by methods known in the art. HEK293 cells were plated in 96-well plates at 15,000 cells/well and grown overnight at 37° C. The following day, the cells were transiently transfected in 6 well replicates using TRANSIT®-LT1 Transfection Reagent (Mirus Bio) with 100 ng of plasmid DNA encoding the codon optimized versions in pF4Ag and grown overnight at 37° C. HEK293 cells were also transfected with either pGL4.13 (Luc2/SV40) (Paguio et al., “pGL4 Vectors: A New Generation of Luciferase Reporter Vectors” Promega Notes, 89:7-10 (2005)) or pGL4.73 (hRL/SV40) (Id.) to normalize for differences in transfection efficiency. Ten ng/transfection or 10% of the total DNA transfected was used.
The OgLuc variants had higher luminescence compared to Luc2 and hRL.

B1: 9B8 opt: codon optimized version of the 9B8 variant (SEQ ID NO: 24) (protein)
chain: MVFTLEDFVGDWRQTAGYNLDQVLEQGGLSSLFQKLGVSVTPIQKIVLSGENGLKIDIHVIIPYEGLSGYQMGQIEKIFKVVYPVDDHHFKVILHYGTLVIDGVTPNMIDYFGRPYEGIAVFDGKKITVTGTLWNGNKIIDERLINPDGSLLFRVTINGVTGWRLCERILA
Take B1: the “RLU (20 μM sulphoraphane)” value in assay [1] is reported as 89,600,000 RLU. The “RLU (20 μM tBHQ)” value in assay [1] is reported as 120,000,000 RLU. In addition, the baseline in assay [1] (1 μM sulphoraphane) is given as 15,600,000 RLU; in assay [1] (1 μM tBHQ), 15,100,000 RLU; in assay [3] (10 ng DNA), 192810 RLU; in assay [3] (100 ng DNA), 3,078,418 RLU; with CRE [4] it was 9,187,000 RLU; in the assay with CRE [5], 39,700,000 RLU. Further, the “fold brighter than QUANTILUM Recombinant Luciferase with BRIGHT-GLO” value in assay [2] is reported as “approximately 8 fold”. The luminescence in assay [2] (0.5 pM purified enzyme, 15 min, 10 μM PBI-3939 or BRIGHT-GLO with 500 μM luciferin) is 19,200 RLU. In addition, the “RLU (10 µM FSK)” value is recorded as 12,926,465 RLU in assay [3] (10 ng DNA) and 104,687,723 RLU in assay [3] (100 ng DNA). Further, the Response is reported as 67 in assay [3] (10 ng DNA) and 34 in assay [3] (100 ng DNA). In addition, the figures for the fold-induction in assay [6] (30 ng of DNA for transfection) and in assay [6] (100 ng of DNA for transfection) were 360 and 109, respectively. In assay [6] (FSK induced), the “induced luminescence higher than Luc2 transcriptional reporter” value is “approximately 1.5 logs”. In assay [6] (FSK induced), the “induced luminescence higher than induced Renilla transcriptional reporter” value was “approximately 2.5 logs”. The RLU in assay [7] is given as 23,283,252,000 RLU.

B2: Luc2: a firefly luciferase (SEQ ID NOs: 28 and 29) (protein, listed as Photinus pyralis)
chain: MEDAKNIKKGPAPFYPLEDGTAGEQLHKAMKRYALVPGTIAFTDAHIEVDITYAEYFEMSVRLAEAMKRYGLNTNHRIVVCSENSLQFFMPVLGALFIGVAVAPANDIYNERELLNSMGISQPTVVFVSKKGLQKILNVQKKLPIIQKIIIMDSKTDYQGFQSMYTFVTSHLPPGFNEYDFVPESFDRDKTIALIMNSSGSTGLPKGVALPHRTACVRFSHARDPIFGNQIIPDTAILSVVPFHHGFGMFTTLGYLICGFRVVLMYRFEEELFLRSLQDYKIQSALLVPTLFSFFAKSTLIDKYDLSNLHEIASGGAPLSKEVGEAVAKRFHLPGIRQGYGLTETTSAILITPEGDDKPGAVGKVVPFFEAKVVDLDTGKTLGVNQRGELCVRGPMIMSGYVNNPEATNALIDKDGWLHSGDIAYWDEDEHFFIVDRLKSLIKYKGYQVAPAELESILLQHPNIFDAGVAGLPDDDAGELPAAVVVLEHGKTMTEKEIVDYVASQVTTAKKLRGGVVFVDEVPKGLTGKLDARKIREILIKAKKGGKIAV
As for B2, the “fold higher luminescence than hRL” value in the assay with HEK293 cells is “approximately 14 fold”.

The record behind these values is US9951373B2, “Oplophorus-derived luciferases, novel coelenterazine substrates, and methods of use” (Promega Corporation, priority 2010, dated 2018).
